Results as given in publication PMC3332085.
Like-named read-outs stand apart in the source and are kept apart here.

Tests used:
Assay in all cases: SAXS
[1] = molecular target: wild type yeast frataxin (Yfh1wt; residues 52-174) (S. cerevisiae) (UniProt Q07540)
[2] = molecular target: wild type yeast frataxin (Yfh1wt; residues 52-174) (S. cerevisiae) (UniProt Q07540); remark: listed apart in the source
[3] = molecular target: wild type yeast frataxin (Yfh1wt; residues 52-174) (S. cerevisiae) (UniProt Q07540); remark: listed apart in the source

## wild type yeast frataxin (Yfh1wt; residues 52-174) (from UniProt Q07540 52-174) (natural protein)
[1]
  distribution, 42-mer: 11%
  distribution, hexamer: 6%
  distribution, monomer: 26%
  distribution, trimer: 57%
[2]
  distribution, hexamer: 9%
  distribution, monomer: 67%
  distribution, trimer: 24%
  stoichiometry N: 2
[3]
  distribution, hexamer: 13%
  distribution, monomer: 54%
  distribution, trimer: 33%
